assay: soluble on expression in E. coli; label from the status in PepcDB or PDB records

| Sequence | soluble on expression in E. coli |
| --- | --- |
| MSLNRKTPKTTDGLMRHIRDNKGIQINGSTEKNQLRNIGYFHGFKGYNFFLNKEEELNFEKFSELHALYSFDTEIKNLFYKHVMFCETAIKNRLLEIVCVNSGFDLDSLFQKSLTYYKSYSPGSSKYKKHLKNTTRLRRDIYDMIHEHCNSKPYIYHYIHQDRTVPLYAVFELFTLGNLVFFTRCMSQNLNIEAQKQLKLYSPAFDQSKDILGDIIDCMKGLRNAIAHNGVLYDCRFKTGETSNRLKEYLAVKMDIHNLDFDRIIDYLILLILICSGLSYSKAELQRIIRQFEQNLDFLRSKISESTYDKIIGVRARPKLRSLKNFINNLDFYLKTDEGHHHHHH | soluble |
| MIAKIIKGTSFSGVLAYILGKQEGKARILYADGVRANAQASDIANDFALQASMRPNVKKPVCHTILSFSAEDTERLSDKVMTDLAKEYLQRMGYADTQYLIVRHLDREHPHLHICINRVNNEGKTISDSNEKYCSTKVCKELTEANLLKWGEGKEAVKRHRLRGNDQLRYAIFDAIKAALPKCTNWQELTSELQKRGIEVQFKTKGQTEKVEGVIFSMDGVSFSGSHIDRSCSYSKLSFALEQNAKHALSLPALPKEDGFIEELSEAIEKLGENLFDSNAPAVDVAELIFQRKLRNQANKKLKRRRL | not soluble |
| MEMRELVGQFVERMQVLRHLVPILPDEQLYVRFESDDETALLLIGKESAARGMENDERKTLTVRGSKEALASLLNGELKLQQLVRLREVHVSGSFRQLLLLESLLHLAKPYRHVG | not soluble |
| LSGMTGNQSPAALMSSNIDLLDAITPNVRDALTALFANIACYVLGSIWFRAGVAERIQASAFVSPGKLKNNASKKSGPISQQDLLILASRFVSPTRAYESFSRFSTEAVKSDSWHKAATPELIAHTERLLAGVLGASSASLVMDSVLQGRDLALDEVFSLVDEASSKIMLSQDMLRGAIEHAYEGMSVIDSDLNLVAWNYKYVELYQYPEGFLQQGMPISEVI | not soluble |
| MGSDKIHHHHHHMWDWIGKLDELRRSNQLAVLVTVTKSSGSTPRKHGAKMIVLPDGTFYGTVGGGTPEYYALEDARACFETMQSTTSSVPLKQRGEFPACGGTMEFYMEVINDNPVLHLFGAGHIGQSLCQILDGTPFRIHLIDEREEWINAPNLPGSVIRHQRHYSDFIEKAIWCDKRTFVAIQTFSGTLDQQVLEEVLPNPTRYVGMIGSKAKWAKVRSNLEEKGLDLSAVRCPIGHDNGGNSPREIAISIASQLLSTYYGRE | not soluble |
| MNEDAWNKETYSAWVKRFGTPDTAAKKISKDPSKILSVLHEKLGDVKGKKIMNIMGSNGSKAVALALLGADVTVVDFSKGNMDYALDLAKEADVKIDYILSDILKLPEDKLTADYDIVFAEMGIIHYFIDLKPFIKTINRLLKEGGLFVLRDFHPVSTKLITSRGSTAKVRKHKVTGDYFDTSLEEKDAAFSKYLIDNKEPEKVLLRKWTLGEIVTSVAEGGFKIKKLDEEPNLSCDNFDKGIPKSFTLTSEKLSLEHHHHHH | soluble |
| MGSDKIHHHHHHMKVKPFSLSIPFNTEPPSDWKDAWDVQLYVKVEDEKDYGWGEALVAGSGIINSYLSIINDIAIPLLSRVELSEPIDVRTILEKILFSAGNCGVVSGAISAVEMALWSLKARKSNVELYKLIGDKIRDSVKVYASFPRFGKIDDVLIATRKSLERGFDLVKLHQSPSTVLAAVKAIRENYKEVKIAIDLNSPFDNLDVAKEFVDKVHKYEIEWIEEPLWPPNDYDLLSKLTEFSPIPIAAGENEYSLYGFKKLIESGITYLQPDIAKVGGVTKFLEILDLASKYKVRVLPHDRPDASPISLIYTLNIGLVKSQIEMVEYTIADFPNDLFYSLPKFKDGYISPPENLEVVERNIEKYSYKNRLRILHFSDLENKLMRKIT | not soluble |
| MTNKEIKKLCRSFGADLVGVASVERFVNAPKGYHPTDVMPTAKSVISLGMVLPKDILEQDIRTYTDIRNEAVKKMDKVAADVAAELKGLKYKAVSIVSLSGKFVDGHFRSRVSLKHAAELAGLGVIARNYLLTNDKYGNLLWFTAVVTSLELEPDPLATYQVCNNCNLCVDLCPSGALTDENNFSQKGCRKVCYITVKGVLELRCWQCRNVCPYKHGIND | not soluble |
